Laboratory results as given in patent publication US20220332804A1 (CSL INNOVATION, published 2022).

Experiments:
Test in all cases: SPR, KD relative to WT C2;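 further: biacore SPR at 37 °C, anti-C2 mAbs captured on anti-human IgG chips with alanine or serine point mutants of C2 as analyte, KD from 1:1 fit compared with wild-type C2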
human C2 E275A = biological target: T1, human C2 E275A (human, UniProt P06681 21-752)
T1 sequence: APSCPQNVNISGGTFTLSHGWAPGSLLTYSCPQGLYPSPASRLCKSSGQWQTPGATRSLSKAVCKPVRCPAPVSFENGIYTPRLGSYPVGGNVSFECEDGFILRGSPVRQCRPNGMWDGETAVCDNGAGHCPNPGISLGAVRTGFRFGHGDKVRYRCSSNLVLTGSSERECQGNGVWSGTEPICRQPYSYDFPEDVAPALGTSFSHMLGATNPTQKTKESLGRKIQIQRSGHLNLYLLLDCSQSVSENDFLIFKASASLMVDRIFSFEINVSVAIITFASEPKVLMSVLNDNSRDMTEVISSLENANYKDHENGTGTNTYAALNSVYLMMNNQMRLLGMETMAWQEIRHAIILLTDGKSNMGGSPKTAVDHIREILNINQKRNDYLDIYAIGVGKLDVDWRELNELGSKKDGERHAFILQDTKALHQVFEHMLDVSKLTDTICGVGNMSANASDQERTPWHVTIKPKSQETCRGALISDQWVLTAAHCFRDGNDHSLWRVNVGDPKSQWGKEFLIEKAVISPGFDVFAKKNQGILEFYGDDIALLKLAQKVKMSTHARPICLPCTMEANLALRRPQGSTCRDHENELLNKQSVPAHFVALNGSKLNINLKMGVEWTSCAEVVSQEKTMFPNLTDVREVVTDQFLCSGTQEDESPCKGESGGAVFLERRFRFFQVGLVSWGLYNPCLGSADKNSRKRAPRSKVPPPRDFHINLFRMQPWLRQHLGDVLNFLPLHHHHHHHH
Description: (§1) Surface plasmon resonance (SPR, Biacore) was used for all binding affinity analyses. In brief, goat anti-human IgG was directly immobilised onto the carboxymethyl dextran surface of CM5 sensorchips to approximately 12,000 RU using standard NHS/EDC chemistry at pH 5. The immobilised antibody surface was pre-conditioned with ten injections of polyclonal human IgG (Privigen 60 s) prepared at 1 μg/mL. Ligands (anti-C2 mAbs) were captured at the beginning of each cycle as described below. An adjacent spot or flow cell in which only Polyclonal IgG was capture was used as a reference surface. The goat anti-human IgG Fc antibody surface was regenerate in 100 mM H3PO4, injected for 45 seconds at the end of each cycle. Experiments were performed at 37° C. and the flow rate of each experiment was kept constant at 30 μL/min.
(§2) Sensogram data was double-referenced against a reference anti-IgG surface (i.e. minus anti-C2 mAb) and blank buffer injections obtained within each experiment. The binding data was fit to 1:1 (kinetic or steady-state) model using local Rmax and null refraction index (RI=0) when appropriate. Buffers and solutions were filtered (0.22 μm) prior to use.

human C2 G414A = biological target: T2, human C2 G414A (human, UniProt P06681 21-752)
T2 sequence: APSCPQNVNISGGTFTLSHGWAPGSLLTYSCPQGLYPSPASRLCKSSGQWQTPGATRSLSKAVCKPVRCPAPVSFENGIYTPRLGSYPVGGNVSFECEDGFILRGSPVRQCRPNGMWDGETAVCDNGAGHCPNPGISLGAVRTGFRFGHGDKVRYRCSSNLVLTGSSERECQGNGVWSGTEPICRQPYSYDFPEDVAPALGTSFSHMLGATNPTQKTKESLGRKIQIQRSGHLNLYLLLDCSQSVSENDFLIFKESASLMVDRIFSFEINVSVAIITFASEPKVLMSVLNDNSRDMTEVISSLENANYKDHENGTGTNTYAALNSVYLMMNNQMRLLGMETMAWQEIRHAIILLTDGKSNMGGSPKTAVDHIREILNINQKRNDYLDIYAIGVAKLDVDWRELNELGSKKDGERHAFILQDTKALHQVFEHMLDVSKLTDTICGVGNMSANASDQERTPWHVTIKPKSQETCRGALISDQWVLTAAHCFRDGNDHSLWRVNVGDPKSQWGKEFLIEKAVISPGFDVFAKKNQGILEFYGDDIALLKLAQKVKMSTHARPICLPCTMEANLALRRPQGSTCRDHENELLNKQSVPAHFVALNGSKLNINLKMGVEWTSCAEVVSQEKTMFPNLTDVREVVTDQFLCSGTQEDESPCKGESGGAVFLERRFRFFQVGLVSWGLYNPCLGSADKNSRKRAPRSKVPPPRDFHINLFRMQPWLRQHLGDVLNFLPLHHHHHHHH
Description: as §1, §2

human C2 N325A = biological target: T3, human C2 N325A (human, UniProt P06681 21-752)
T3 sequence: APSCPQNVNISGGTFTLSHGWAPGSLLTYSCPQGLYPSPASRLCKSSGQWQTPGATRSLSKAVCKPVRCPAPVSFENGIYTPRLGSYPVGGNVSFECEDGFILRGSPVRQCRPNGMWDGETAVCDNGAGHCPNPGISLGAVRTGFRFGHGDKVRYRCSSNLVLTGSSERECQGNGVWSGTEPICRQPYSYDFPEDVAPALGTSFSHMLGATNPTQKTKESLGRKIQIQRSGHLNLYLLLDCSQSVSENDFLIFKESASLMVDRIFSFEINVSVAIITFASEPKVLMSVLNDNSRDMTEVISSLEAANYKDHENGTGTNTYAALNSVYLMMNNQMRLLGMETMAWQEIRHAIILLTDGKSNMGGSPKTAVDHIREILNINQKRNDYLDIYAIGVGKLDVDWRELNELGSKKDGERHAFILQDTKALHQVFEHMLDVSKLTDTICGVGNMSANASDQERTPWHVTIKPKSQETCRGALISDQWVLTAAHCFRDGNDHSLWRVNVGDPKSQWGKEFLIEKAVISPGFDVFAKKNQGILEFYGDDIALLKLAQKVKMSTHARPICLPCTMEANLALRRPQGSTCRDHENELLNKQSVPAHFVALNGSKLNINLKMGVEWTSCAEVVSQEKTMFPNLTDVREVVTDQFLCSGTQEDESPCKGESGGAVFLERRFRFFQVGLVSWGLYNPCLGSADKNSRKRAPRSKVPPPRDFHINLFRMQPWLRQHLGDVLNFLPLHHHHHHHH
Description: as §1, §2

human C2 M452A = biological target: T4, human C2 M452A (human, UniProt P06681 21-752)
T4 sequence: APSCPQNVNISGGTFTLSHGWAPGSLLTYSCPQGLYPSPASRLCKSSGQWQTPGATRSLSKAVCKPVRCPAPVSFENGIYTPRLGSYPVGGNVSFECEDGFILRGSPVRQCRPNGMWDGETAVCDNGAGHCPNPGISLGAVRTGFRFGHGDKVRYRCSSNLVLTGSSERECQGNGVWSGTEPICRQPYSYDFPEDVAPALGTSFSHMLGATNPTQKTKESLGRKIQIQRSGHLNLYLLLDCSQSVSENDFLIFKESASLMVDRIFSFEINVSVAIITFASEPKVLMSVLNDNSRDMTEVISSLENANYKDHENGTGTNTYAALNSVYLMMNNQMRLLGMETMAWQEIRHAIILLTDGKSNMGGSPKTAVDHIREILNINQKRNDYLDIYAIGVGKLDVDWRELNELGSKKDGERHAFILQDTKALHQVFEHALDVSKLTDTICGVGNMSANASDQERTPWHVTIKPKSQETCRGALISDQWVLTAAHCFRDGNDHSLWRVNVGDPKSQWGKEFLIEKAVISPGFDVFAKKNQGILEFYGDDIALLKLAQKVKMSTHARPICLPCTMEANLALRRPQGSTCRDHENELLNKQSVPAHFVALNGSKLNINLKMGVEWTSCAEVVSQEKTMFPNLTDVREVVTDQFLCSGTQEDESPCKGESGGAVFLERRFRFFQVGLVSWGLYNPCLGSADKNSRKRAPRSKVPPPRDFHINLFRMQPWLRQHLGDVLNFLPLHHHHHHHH
Description: as §1, §2

B1: RF16-242 (antibody, human IgG4 S228P, lambda, V domains shown)
VH: EVQLLQSGAEVKKPGESLKISCKGSGYSFTSYWIGWVRQMPGKGLEWMGIIYPGDSDTRYSPSFQGQVTISADKSISTAYLQWSSLKASDTAMYYCARRGHYGDYFDYWGQGTLVTVSS
VL: SYELTQPPSVSVSPGQTARITCSGDALPKKYAYWYHQKSGQAPVLVIYEDRRRPSEIPERFSGSSSGTMATLTITGAQVEDEGVYFCYSRDRAGNQRVFGGGTQLTVLG
notes: pH-dependent anti-C2 antibody from a phage display library
With B1 the Fold diff (human C2 E275A) was 6 fold, the Fold diff (human C2 G414A) was 1 fold and the Fold diff (human C2 N325A) was 6 fold. The Fold diff (human C2 M452A) was 1 fold.
